We go through 1 molecule from patent US20030175271A1 (Kyowa Kirin, published 2003).

This test addresses ^125I-labeled human VEGF (human, UniProt P15692-4 27-191, limits assumed, 125I-labeled). The experiment in a line: competition against ^125I-VEGF (4 ng/ml) binding to coated KDR-7N-Fc. On the procedure: Methanol was dispensed in 100 μl portions into wells of a 96-well Immobilon™-P Filtration Plate (manufactured by Millipore) to give hydrophilic nature to the PVDF membrane on the bottom of the plate. […] After washing, PBS containing 1% bovine serum albumin (BSA) was added in 200 μl/well portions and the reaction was carried out at room temperature for 30 minutes to block the remaining active residues.

Chain of ^125I-labeled human VEGF (P15692 other isoform, or with tags, fused parts or gaps limits assumed): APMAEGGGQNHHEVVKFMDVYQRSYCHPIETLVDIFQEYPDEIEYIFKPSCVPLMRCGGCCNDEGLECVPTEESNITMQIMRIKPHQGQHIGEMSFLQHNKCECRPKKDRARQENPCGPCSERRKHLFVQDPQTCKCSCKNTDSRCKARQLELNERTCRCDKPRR

B1: soluble human VEGF receptor KDR-1N-Fc (Fc fusion)
chain: ASVGLPSVSLDLPRLSIQKDILTIKANTTLQITCRGQRDLDWLWPNNQSGSEQRVEVTECSDGLFCKTLTIPKVIGNDTGAYKCFYRETDLASVIYVYVQDYRS
notes: not shown: linker #1 (6 residues)
With B1, the binding result was “no binding”.
